Key:
[1] = target: T1, human TPBG (full length, on cells) (human, UniProt Q13641 32-420); assay: FACS, HEK293 clone 293F-hTPBG 5A9
T1 sequence (looked up): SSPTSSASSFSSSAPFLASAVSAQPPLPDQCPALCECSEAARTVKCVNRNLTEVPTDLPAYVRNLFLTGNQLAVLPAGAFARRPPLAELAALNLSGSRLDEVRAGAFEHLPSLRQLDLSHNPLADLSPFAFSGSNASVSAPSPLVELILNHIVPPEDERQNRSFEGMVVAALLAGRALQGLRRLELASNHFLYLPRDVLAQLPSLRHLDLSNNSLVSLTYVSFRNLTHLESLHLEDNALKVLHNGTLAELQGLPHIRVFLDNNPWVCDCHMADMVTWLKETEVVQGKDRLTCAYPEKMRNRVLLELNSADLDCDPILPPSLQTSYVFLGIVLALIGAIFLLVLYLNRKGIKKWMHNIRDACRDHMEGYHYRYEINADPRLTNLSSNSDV

[2] = target: T2, human TPBG-hFc (human, UniProt Q13641 32-355); assay: ELISA, coated human TPBG-hFc 1.0 ug/mL; control IgG 20 nM
T2 construct: also called immunogen A; hFc tagged TPBG protein; not shown: The human IgG Fc fragment of the pCpC vector (Invitrogen V044-50) and any linker to it
T2 sequence: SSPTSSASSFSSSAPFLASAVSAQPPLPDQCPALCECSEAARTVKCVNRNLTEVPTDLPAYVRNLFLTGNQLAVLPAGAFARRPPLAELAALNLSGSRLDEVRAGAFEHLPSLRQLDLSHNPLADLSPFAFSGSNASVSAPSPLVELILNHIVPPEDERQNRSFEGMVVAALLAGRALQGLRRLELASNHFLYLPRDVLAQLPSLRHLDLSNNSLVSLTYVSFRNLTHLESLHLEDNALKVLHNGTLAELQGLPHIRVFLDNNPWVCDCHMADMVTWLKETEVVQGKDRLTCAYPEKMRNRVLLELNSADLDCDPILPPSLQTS

[3] = target: T2, human TPBG-hFc; assay: ELISA, coated human TPBG-hFc 1.0 ug/mL; control IgG 0.02 nM
[4] = target: T1, human TPBG (full length, on cells); assay: FACS, HEK293 clone 293F-hTPBG 4H12
[5] = target: T1, human TPBG (full length, on cells); assay: FACS, HEK293 clone 293F-hTPBG 4E1
[6] = target: T1, human TPBG (full length, on cells); assay: FACS, HEK293 clone 293F-hTPBG 4G6
[7] = target: T2, human TPBG-hFc; assay: ELISA, coated human TPBG-hFc 1.0 ug/mL; control IgG 0.2 nM
[8] = target: T1, human TPBG (full length, on cells); assay: FACS, HEK293 clone 293F-hTPBG 4B9
[9] = target: cynomolgus monkey TPBG (full length, on cells) (cynomolgus monkey) (UniProt Q4R8Y9); assay: FACS on CHO-k1-cTPBG 3F13G4 cells
[10] = target: T1, human TPBG (full length, on cells); assay: FACS, HEK293 clone 293F-hTPBG 5E6
[11] = target: T1, human TPBG (full length, on cells); assay: FACS, HEK293 clone 293F-hTPBG 5C12
[12] = target: T1, human TPBG (full length, on cells); assay: FACS, HEK293 clone 293F-hTPBG 5H6
[13] = target: T1, human TPBG (full length, on cells); assay: FACS, HEK293 clone 293F-hTPBG 5G11
[14] = target: T1, human TPBG (full length, on cells); assay: FACS, HEK293 clone 293F-hTPBG 4A9
[15] = target: T2, human TPBG-hFc; assay: ELISA, coated human TPBG-hFc 1.0 ug/mL; control IgG 2 nM
[16] = target: T1, human TPBG (full length, on cells); assay: FACS, HEK293 clone 293F-hTPBG 4E1 (NO. 8)
[17] = target: T1, human TPBG (full length, on cells); assay: FACS, HEK293 clone 293F-hTPBG 4G1
[18] = target: T1, human TPBG (full length, on cells); assay: FACS, HEK293 clone 293F-hTPBG 4A8
[19] = target: T3, mouse TPBG (full length, on cells) (mouse, UniProt Q9Z0L0 32-426); assay: FACS on CHO-k1-mTPBG 3A3 cells
T3 construct: whole, on cells; On transfected CHO-K1 cells; also called mTPBG; CHO-K1-mTPBG
T3 sequence (looked up): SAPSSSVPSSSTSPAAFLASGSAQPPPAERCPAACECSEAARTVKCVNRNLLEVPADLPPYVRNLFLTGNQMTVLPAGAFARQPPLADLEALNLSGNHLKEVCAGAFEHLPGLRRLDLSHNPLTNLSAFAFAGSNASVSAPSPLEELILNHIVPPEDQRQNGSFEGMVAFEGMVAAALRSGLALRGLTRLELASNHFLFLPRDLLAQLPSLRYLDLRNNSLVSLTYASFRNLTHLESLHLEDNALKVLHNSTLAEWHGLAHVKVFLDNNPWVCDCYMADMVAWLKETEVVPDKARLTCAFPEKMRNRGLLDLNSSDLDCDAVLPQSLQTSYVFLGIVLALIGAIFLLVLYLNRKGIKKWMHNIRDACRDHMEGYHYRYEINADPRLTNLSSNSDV

[20] = target: T1, human TPBG (full length, on cells); assay: FACS, HEK293 clone 293F-hTPBG 5G8
[21] = target: T1, human TPBG (full length, on cells); assay: FACS, HEK293 clone 293F-hTPBG 4C5
[22] = target: T1, human TPBG (full length, on cells); assay: FACS on CHO-k1-hTPBG 3A2F1 cells
[23] = target: T1, human TPBG (full length, on cells); assay: FACS, HEK293 clone 293F-hTPBG 4F9
[24] = target: T1, human TPBG (full length, on cells); assay: FACS, HEK293 clone 293F-hTPBG 5D4
[25] = target: T2, human TPBG-hFc; assay: ELISA, coated human TPBG-hFc 1.0 ug/mL; control IgG 0.0002 nM
[26] = target: T1, human TPBG (full length, on cells); assay: FACS, HEK293 clone 293F-hTPBG 4C3
[27] = target: T1, human TPBG (full length, on cells); assay: FACS, HEK293 clone 293F-hTPBG 5E5
[28] = target: T1, human TPBG (full length, on cells); assay: FACS, HEK293 clone 293F-hTPBG 5A11
[29] = target: T2, human TPBG-hFc; assay: ELISA, coated human TPBG-hFc 1.0 ug/mL; control IgG 200 nM
[30] = target: T2, human TPBG-hFc; assay: ELISA, coated human TPBG-hFc 1.0 ug/mL; control IgG 0.002 nM

MFI [1]: 5 MFI
OD450nm [2]: 0.11 OD450nm
OD450nm [3]: 0.1 OD450nm
MFI [4]: 4 MFI
MFI [5]: 5.2 MFI
MFI [6]: 3.1 MFI
OD450nm [7]: 0.11 OD450nm
MFI [8]: 6.3 MFI
MFI [9]: 2.66 MFI
MFI [10]: 2.6 MFI
MFI [11]: 3.7 MFI
MFI [12]: 3 MFI
MFI [13]: 4.1 MFI
MFI [14]: 6.3 MFI
OD450nm [15]: 0.1 OD450nm
MFI [16]: 4.8 MFI
MFI [17]: 4 MFI
MFI [18]: 3.1 MFI
MFI [19]: 2.38 MFI
MFI [20]: 6 MFI
MFI [21]: 5.6 MFI
MFI [22]: 3.24 MFI
MFI [23]: 3.9 MFI
MFI [24]: 3 MFI
OD450nm [25]: 0.11 OD450nm
MFI [26]: 3.2 MFI
MFI [27]: 5.6 MFI
MFI [28]: 4.6 MFI
OD450nm [29]: 0.24 OD450nm
OD450nm [30]: 0.1 OD450nm
Substance: mouse IgG control (antibody)

Source: patent US20210198377A1 (XDCEXPLORER SHANGHAI, published 2021)
